Assay [1] concerns the target T1, recombinant human TSLP (human, UniProt Q969D9 29-159).
T1 construct: also called thymic stromal lymphopoietin
Description: SPR (Biacore 3000, CM5 chip, 25 C): complex captured via protein A, TSLP as analyte, 1:1 fit; column 'TSLP binding(pM)'. The procedure: (§1) SPR studies were carried out on a Biacore 3000 instrument with a CM5 chip at 25° C. The running buffer comprised 25 mM Hepes, pH 7.5, 150 mM NaCl, 0.5 mg/ml BSA, 0.005% P20. Antibodies were captured via protein A using approximately a 1/50 dilution of each antibody in the running buffer and a 2-minute contact time at a 10 μl/min flow rate. Protein A was immobilized on a CM5 chip via standard amine coupling chemistry in 10 mM acetate pH 4.5. Approximately 800 RU of each antibody was captured. The surfaces were regenerated via a 10 mM glycine pH 1.5 between cycles. Between assays the chip was regenerated with a 2-minute pulse of 100 mM Phosphoric acid. Prior to setting up multicycle kinetic analysis analyte concentration was determined spectrophotometrically using an extinction coefficient of 72,880 M⁻¹ cm⁻¹ for IL4R and 18450 M⁻¹ cm⁻¹ for the TSLP proteins respectively. Analyte samples were prepared by diluting stocks into running buffer to a final concentration of 500 nM for the IL-4R and 25 nM for TSLP followed by serially diluting with a 2-fold series with an association time of 2.5 minutes at a 50 μl/min flow rate. Dissociation data was collected for a period of 1600 seconds. Raw data was analyzed using the Scrubber2 (Biologic Software, AU) program using a double referencing procedure where compound signal is corrected to a blank surface and a buffer injection over the captured antibody surface. Kinetic data was analyzed by fitting to a simple 1:1 binding model. […] The candidates are further described in Table 3.
In general terms: Surface plasmon resonance follows binding to a sensor surface in real time, without labels.

The target in assay [2] is T1, recombinant human TSLP. The experiment in a line: cell-based or functional assay.
In assay [3] the target is T2, IL-4R on human donor PBMC (B-cells) (human, UniProt P24394 26-825). Description: cell-based or functional assay.
The target of assay [4] is T1, recombinant human TSLP. Description: SPR; column 'SPR (Biophysical binding): TSLP (pM)'. The procedure: as §1
Assay [5] addresses T2, IL-4R on human donor PBMC (B-cells). Description: cell-based or functional assay. The source holds these as a separate data set.

B1: Candidate-21: TSLP TRAP 1_Linker-GS4_Dupilumab-YTE (bispecific antibody, human IgG4 S228P, kappa)
heavy: GAAEGVQIQIIYFNLETVQVTWNASKYSRTNLTFHYRFNGDEAYDQCTNYLLQEGHTSGCLLDAEQRDDILYFSIRNGTHPVFTASRWMVYYLKPSSPKHVRFSWHQDAVTVTCSDLSYGDLLYEVQYRSPFDTEWQSKQENTCNVTIEGLDAEKCYSFWVRVKAMEDVYGPDTYPSDWSEVTCWQRGEIRDACAETPTPPKPKLSKGGSGGSGGSGGSGGSGGSGGSGGSGGSGGSGGSGGSGGSGGSGGSGGSGGSGGSGGSGGSESGYAQNGDLEDAELDDYSFSCYSQLEVNGSQHSLTCAFEDPDVNITNLEFEICGALVEVKCLNFRKLQEIYFIETKKFLLIGKSNICVKVGEKSLTCKKIDLTTIVKPEAPFDLSVVYREGANDFVVTFNTSHLQKKYVKVLMHDVAYRQEKDENKWTHVNLSSTKLTLLQRKLQPAAMYEIKVRSIPDHYFKGFWSEWSPSYYFRTPEINNSSGEMDGGGGSGGGGSGGGGSGGGGSEVQLVESGGGLEQPGGSLRLSCAGSGFTFRDYAMTWVRQAPGKGLEWVSSISGSGGNTYYADSVKGRFTISRDNSKNTLYLQMNSLRAEDTAVYYCAKDRLSITIRPRYYGLDVWGQGTTVTVSSASTKGPSVFPLAPCSRSTSESTAALGCLVKDYFPEPVTVSWNSGALTSGVHTFPAVLQSSGLYSLSSVVTVPSSSLGTKTYTCNVDHKPSNTKVDKRVESKYGPPCPPCPAPEFLGGPSVFLFPPKPKDTLYITREPEVTCVVVDVSQEDPEVQFNWYVDGVEVHNAKTKPREEQFNSTYRVVSVLTVLHQDWLNGKEYKCKVSNKGLPSSIEKTISKAKGQPREPQVYTLPPSQEEMTKNQVSLTCLVKGFYPSDIAVEWESNGQPENNYKTTPPVLDSDGSFFLYSRLTVDKSRWQEGNVFSCSVMHEALHNHYTQKSLSLSLG
light: DIVMTQSPLSLPVTPGEPASISCRSSQSLLYSIGYNYLDWYLQKSGQSPQLLIYLGSNRASGVPDRFSGSGSGTDFTLKISRVEAEDVGFYYCMQALQTPYTFGQGTKLEIKRTVAAPSVFIFPPSDEQLKSGTASVVCLLNNFYPREAKVQWKVDNALQSGNSQESVTEQDSKDSTYSLSSTLTLSKADYEKHKVYACEVTHQGLSSPVTKSFNRGEC
notes: TRAP sits at the N-terminus of the heavy chain
Regarding B1, the Kd with recombinant human TSLP [1] and with recombinant human TSLP [4] was 0.0208 nM each time. Besides, the “IC50, PBMC assay in response to TSLP (TARC secretion)” value in the assay with recombinant human TSLP [2] worked out at 2.3 nM. Moreover, the “IC50, IL-4 biological assay (CD23 upregulation in PBMCs)” value in assay [3] is greater than 200 nM.

B2: Candidate-22: TSLP TRAP 2_Linker-GS4_Dupilumab-YTE (bispecific antibody, human IgG4 S228P, kappa)
heavy: ESGYAQNGDLEDAELDDYSFSCYSQLEVNGSQHSLTCAFEDPDVNITNLEFEICGALVEVKCLNFRKLQEIYFIETKKFLLIGKSNICVKVGEKSLTCKKIDLTTIVKPEAPFDLSVVYREGANDFVVTFNTSHLQKKYVKVLMHDVAYRQEKDENKWTHVNLSSTKLTLLQRKLQPAAMYEIKVRSIPDHYFKGFWSEWSPSYYFRTPEINNSSGEMDGGSGGSGGSGGSGGSGGSGGSGGSGGSGGSGGSGGSGGSGGSGGSGGSGGSGGSGGSGGSGAAEGVQIQIIYFNLETVQVTWNASKYSRTNLTFHYRFNGDEAYDQCTNYLLQEGHTSGCLLDAEQRDDILYFSIRNGTHPVFTASRWMVYYLKPSSPKHVRFSWHQDAVTVTCSDLSYGDLLYEVQYRSPFDTEWQSKQENTCNVTIEGLDAEKCYSFWVRVKAMEDVYGPDTYPSDWSEVTCWQRGEIRDACAETPTPPKPKLSKGGGGSGGGGSGGGGSGGGGSEVQLVESGGGLEQPGGSLRLSCAGSGFTFRDYAMTWVRQAPGKGLEWVSSISGSGGNTYYADSVKGRFTISRDNSKNTLYLQMNSLRAEDTAVYYCAKDRLSITIRPRYYGLDVWGQGTTVTVSSASTKGPSVFPLAPCSRSTSESTAALGCLVKDYFPEPVTVSWNSGALTSGVHTFPAVLQSSGLYSLSSVVTVPSSSLGTKTYTCNVDHKPSNTKVDKRVESKYGPPCPPCPAPEFLGGPSVFLFPPKPKDTLYITREPEVTCVVVDVSQEDPEVQFNWYVDGVEVHNAKTKPREEQFNSTYRVVSVLTVLHQDWLNGKEYKCKVSNKGLPSSIEKTISKAKGQPREPQVYTLPPSQEEMTKNQVSLTCLVKGFYPSDIAVEWESNGQPENNYKTTPPVLDSDGSFFLYSRLTVDKSRWQEGNVFSCSVMHEALHNHYTQKSLSLSLG
light: DIVMTQSPLSLPVTPGEPASISCRSSQSLLYSIGYNYLDWYLQKSGQSPQLLIYLGSNRASGVPDRFSGSGSGTDFTLKISRVEAEDVGFYYCMQALQTPYTFGQGTKLEIKRTVAAPSVFIFPPSDEQLKSGTASVVCLLNNFYPREAKVQWKVDNALQSGNSQESVTEQDSKDSTYSLSSTLTLSKADYEKHKVYACEVTHQGLSSPVTKSFNRGEC
notes: The chains here are built from the component entries; TRAP sits at the N-terminus of the heavy chain
In the case of B2, the Kd with recombinant human TSLP [1] and with recombinant human TSLP [4] was 0.019 nM in each case. Moreover, in the assay with recombinant human TSLP [2], the “IC50, PBMC assay in response to TSLP (TARC secretion)” value stood at 0.43 nM. For the same molecule, in assay [3], the “IC50, IL-4 biological assay (CD23 upregulation in PBMCs)” value was greater than 200 nM.

B3: Candidate-26: Light chain C-terminal TRAP: Dupilumab-YTE_Linker-GS4_TSLP TRAP 2 [2 x TRAP 2] (bispecific antibody, human IgG4 S228P, kappa)
heavy: EVQLVESGGGLEQPGGSLRLSCAGSGFTFRDYAMTWVRQAPGKGLEWVSSISGSGGNTYYADSVKGRFTISRDNSKNTLYLQMNSLRAEDTAVYYCAKDRLSITIRPRYYGLDVWGQGTTVTVSSASTKGPSVFPLAPCSRSTSESTAALGCLVKDYFPEPVTVSWNSGALTSGVHTFPAVLQSSGLYSLSSVVTVPSSSLGTKTYTCNVDHKPSNTKVDKRVESKYGPPCPPCPAPEFLGGPSVFLFPPKPKDTLYITREPEVTCVVVDVSQEDPEVQFNWYVDGVEVHNAKTKPREEQFNSTYRVVSVLTVLHQDWLNGKEYKCKVSNKGLPSSIEKTISKAKGQPREPQVYTLPPSQEEMTKNQVSLTCLVKGFYPSDIAVEWESNGQPENNYKTTPPVLDSDGSFFLYSRLTVDKSRWQEGNVFSCSVMHEALHNHYTQKSLSLSLG
light: DIVMTQSPLSLPVTPGEPASISCRSSQSLLYSIGYNYLDWYLQKSGQSPQLLIYLGSNRASGVPDRFSGSGSGTDFTLKISRVEAEDVGFYYCMQALQTPYTFGQGTKLEIKRTVAAPSVFIFPPSDEQLKSGTASVVCLLNNFYPREAKVQWKVDNALQSGNSQESVTEQDSKDSTYSLSSTLTLSKADYEKHKVYACEVTHQGLSSPVTKSFNRGECGGGGSGGGGSGGGGSGGGGSESGYAQNGDLEDAELDDYSFSCYSQLEVNGSQHSLTCAFEDPDVNITNLEFEICGALVEVKCLNFRKLQEIYFIETKKFLLIGKSNICVKVGEKSLTCKKIDLTTIVKPEAPFDLSVVYREGANDFVVTFNTSHLQKKYVKVLMHDVAYRQEKDENKWTHVNLSSTKLTLLQRKLQPAAMYEIKVRSIPDHYFKGFWSEWSPSYYFRTPEINNSSGEMDGGSGGSGGSGGSGGSGGSGGSGGSGGSGGSGGSGGSGGSGGSGGSGGSGGSGGSGGSGGSGAAEGVQIQIIYFNLETVQVTWNASKYSRTNLTFHYRFNGDEAYDQCTNYLLQEGHTSGCLLDAEQRDDILYFSIRNGTHPVFTASRWMVYYLKPSSPKHVRFSWHQDAVTVTCSDLSYGDLLYEVQYRSPFDTEWQSKQENTCNVTIEGLDAEKCYSFWVRVKAMEDVYGPDTYPSDWSEVTCWQRGEIRDACAETPTPPKPKLSK
notes: The chains here are built from the component entries
For the molecule B3, the Kd with recombinant human TSLP [1] and with recombinant human TSLP [4] was 0.0083 nM each time. The “IC50, inhibition of TSLP responses (TARC secretion) in human PBMCs” value with recombinant human TSLP [2] came to 7.8 nM. For the same molecule, the “IC50, CD23 upregulation on B cells of human PBMC in response to IL-4 (column 'Biological Assays: IL-4R (nM)')” value in assay [5] is greater than 200 nM.

As a reminder, the Kd is a measure of binding affinity in units of concentration.
